# Test results reported in patent US6617497B1, “Cytokinin oxidase” (The Curators of the University of Missouri, priority 1997, dated 2003).
# B1: ckx1: purified plant cytokinin oxidizing enzyme from Zea mays (SEQ. ID NO. 1); here expressed recombinantly in Pichia pastoris (protein)
# chain: MAVVYYLLLAGLIACSHALAAGTPALGDDRGRPWPASLAALALDGKLRTDSNATAAASTDFGNITSALPAAVLYPSSTGDLVALLSAANSTPGWPYTIAFRGRGHSLMGQAFAPGGVVVNMASLGDAAAPPGINVSADGRYVDAGGEQVWIDVLRASLARGVAPRSWNDYLYLTVGGTLSNAGISGQAFRHGPQISNVLEMDVITGHGEMVTCSKQLNADLFDAVLGGLGQFGVITRARIAVEPAPARARWVRFVYTDFAAFSADQERLTAPRPGGGGASFGPMSYVEGSVFVNQSLATDLANTGFFTDADVARIVALAGERNATTVYSIEATLNYDNATAAAAAVDQELASVLGTLSYVEGFAFQRDVAYAAFLDRVHGEEVALNKLGLWRVPHPWLNMFVPRSRIADFDRGVFKGILQGTDIVGPLIVYPLNKSMWDDGMSAATPSEDVFYAVSLLFSSVAPNDLARLQEQNRRILRFCDLAGIQYKTYLARHTDRSDWVRHFGAAKWNRFVEMKNKYDPKRLLSPGQDIFN
# modifications: Zea mays
# notes: here expressed recombinantly in Pichia pastoris
# Molecular target: T1, cytokinin oxidase activity (Zea mays, UniProt Q9T0N8)
# T1 construct: The exon fusion (containing ckx1 and including its putative signal peptide) was ligated into the Pml1/BsmB1 restriction sites of pPICZ-A; made in house; host or cells: Pichia pastoris X33 (transformant PPckx1, plasmid pROM24); activity measured in the culture supernatant
# Assay: Cytokinin oxidase activity of ckx1 expressed in Pichia pastoris
# Type: biochemical
# Description: Two assays were used to screen purification steps for cytokinin oxidase activity. The first was the Schiff base formation assay measuring the production of dimethylallylaldehyde from iP, as described by Liberos-Minotta (1995), which was used up through the DEAE column step. A second assay, developed by the applicant, was used in the remaining purification steps. In this assay, the transfer of reducing equivalents from isopentenyladenine to dichlorophenolindophenol (DCPIP), catalyzed by ckx1, allows the observance of reactivity by measuring absorbance change at 590 nm. In a final volume of 250 μl, the assay contains: 100 mM Phosphate buffer, pH 7.0; 1.0 mM EDTA; 0.05 mM DCPIP; 0.1 mM iP; 100 μg/ml BSA; and the sample tested. After the addition of the enzyme, absorbance change is read at 590 nm for 10 minutes.
# Removal of the right-most intron was accomplished by splicing by overlap extension (Horton et al., 1989) and for the left-most intron by ligation of suitable restriction fragments. The resulting intronless cassette was inserted into the Pichia expression vector pPICZ-A to give the expression construct pROM24 (FIG. 9). This construct was introduced into the requisite Pichia host and grown in the presence of methanol to induce ckx1 expression. Appropriate control Pichia lines (containing. the vector alone or a recombinant expressing human serum albumin) were grown in parallel. […]
# T1 sequence (Q9T0N8 19-534): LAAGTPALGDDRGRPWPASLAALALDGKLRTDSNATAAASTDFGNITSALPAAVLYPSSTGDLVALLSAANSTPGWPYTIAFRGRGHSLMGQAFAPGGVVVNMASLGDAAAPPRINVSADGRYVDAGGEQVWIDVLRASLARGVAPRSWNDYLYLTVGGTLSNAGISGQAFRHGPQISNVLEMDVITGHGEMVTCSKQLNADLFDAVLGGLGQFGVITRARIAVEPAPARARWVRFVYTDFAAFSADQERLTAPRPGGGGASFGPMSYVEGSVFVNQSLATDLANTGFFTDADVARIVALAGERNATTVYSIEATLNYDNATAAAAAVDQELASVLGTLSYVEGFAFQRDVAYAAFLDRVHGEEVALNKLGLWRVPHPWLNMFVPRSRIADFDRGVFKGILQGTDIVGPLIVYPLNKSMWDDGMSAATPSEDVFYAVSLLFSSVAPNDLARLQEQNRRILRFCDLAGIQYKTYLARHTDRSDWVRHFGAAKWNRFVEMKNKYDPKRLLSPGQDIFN
molecule,measurement,setting,value
B1,cytokinin oxidase activity in cell lysates,"Pichia cell lysates, at any time during the growth curve",No cytokinin oxidase activity
same,cytokinin oxidase activity in growth medium,"Pichia culture supernatant, methanol induction",high levels of cytokinin oxidase activity
